{"source": "patent US20230346916A1", "about": "(NEW YORK BLOOD CENTER, published 2023)", "binders": {"B1": {"name": "soluble human DPP4 (sDPP4) receptor (receptor)", "chain": "SRKTYTLTDYLKNTYRLKLYSLRWISDHEYLYKQENNILVFNAEYGNSSVFLENSTFDEFGHSINDYSISPDGQFILLEYNYVKQWRHSYTASYDIYDLNKRQLITEERIPNNTQWVTWSPVGHKLAYVWNNDIYVKIEPNLPSYRITWTGKEDIIYNGITDWVYEEEVFSAYSALWWSPNGTFLAYAQFNDTEVPLIEYSFYSDESLQYPKTVRVPYPKAGAVNPTVKFFVVNTDSLSSVTNATSIQITAPASMLIGDHYLCDVTWATQERISLQWLRRIQNYSVMDICDYDESSGRWNCLVARQHIEMSTTGWVGRFRPSEPHFTLDGNSFYKIISNEEGYRHICYFQIDKKDCTFITKGTWEVIGIEALTSDYLYYISNEYKGMPGGRNLYKIQLSDYTKVTCLSCELNPERCQYYSVSFSKEAKYYQLRCSGPGLPLYTLHSSVNDKGLRVLEDNSALDKMLQNVQMPSKKLDFIILNETKFWYQMILPPHFDKSKKYPLLLDVYAGPCSQKADTVFRLNWATYLASTENIIVASFDGRGSGYQGDKIMHAINRRLGTFEVEDQIEAARQFSKMGFVDNKRIAIWGWSYGGYVTSMVLGSGSGVFKCGIAVAPVSRWEYYDSVYTERYMGLPTPEDNLDHYRNSTVMSRAENFKQVEYLLIHGTADDNVHFQQSAQISKALVDVGVDFQAMWYTDEDHGIASSTAHQHIYTHMSHFIKQCFSLP", "notes": "also called hDPP4 in solution"}, "B2": {"name": "human DPP4 (hDPP4) receptor expressed on 293T cells (receptor)", "chain": "MKTPWKVLLGLLGAAALVTIITVPVVLLNKGTDDATADSRKTYTLTDYLKNTYRLKLYSLRWISDHEYLYKQENNILVFNAEYGNSSVFLENSTFDEFGHSINDYSISPDGQFILLEYNYVKQWRHSYTASYDIYDLNKRQLITEERIPNNTQWVTWSPVGHKLAYVWNNDIYVKIEPNLPSYRITWTGKEDIIYNGITDWVYEEEVFSAYSALWWSPNGTFLAYAQFNDTEVPLIEYSFYSDESLQYPKTVRVPYPKAGAVNPTVKFFVVNTDSLSSVTNATSIQITAPASMLIGDHYLCDVTWATQERISLQWLRRIQNYSVMDICDYDESSGRWNCLVARQHIEMSTTGWVGRFRPSEPHFTLDGNSFYKIISNEEGYRHICYFQIDKKDCTFITKGTWEVIGIEALTSDYLYYISNEYKGMPGGRNLYKIQLSDYTKVTCLSCELNPERCQYYSVSFSKEAKYYQLRCSGPGLPLYTLHSSVNDKGLRVLEDNSALDKMLQNVQMPSKKLDFIILNETKFWYQMILPPHFDKSKKYPLLLDVYAGPCSQKADTVFRLNWATYLASTENIIVASFDGRGSGYQGDKIMHAINRRLGTFEVEDQIEAARQFSKMGFVDNKRIAIWGWSYGGYVTSMVLGSGSGVFKCGIAVAPVSRWEYYDSVYTERYMGLPTPEDNLDHYRNSTVMSRAENFKQVEYLLIHGTADDNVHFQQSAQISKALVDVGVDFQAMWYTDEDHGIASSTAHQHIYTHMSHFIKQCFSLP", "notes": "whole, on cells"}}, "key": {"[1]": {"target": "T1, SARS-CoV-2 RBD-Fc fusion protein (residues 331-524 of SARS-CoV-2 S protein with a C-terminal Fc of human IgG1) (SARS-CoV-2; human)", "T1 construct": "also called SARS-CoV-2 RBD protein; SARS-CoV-2 RBD-Fc protein", "assay": "ELISA, RBD-Fc coated at 1 µg/ml, sDPP4 serially diluted"}, "[2]": {"target": "T1, SARS-CoV-2 RBD-Fc fusion protein …", "assay": "flow cytometry on hDPP4/293T cells"}}, "data": [{"binder": "B1", "values": [{"measurement": "binding result", "setting": "[1]", "value": "no binding"}]}, {"binder": "B2", "values": [{"measurement": "binding result", "setting": "[2]", "value": "no binding (tested: 20 µg/ml)"}]}]}
